Assay results from article PMC3988174.

Legend:
[1] = biological target: atToc159 G-domain bait (Arabidopsis thaliana) (UniProt O81283); test: two-hybrid; pairwise split-ubiquitin yeast two-hybrid of isolated NubG-preys with Toc159G, Toc132G or Toc132AG bait in NMY51; growth on SD-LWHA (3-AT) and quantitative β-Gal assay, activity relative to a reference bait set to 100%
[2] = biological target: atToc132 G-domain bait (Arabidopsis thaliana) (UniProt Q9SLF3); test: as above
atToc132 G-domain bait (Arabidopsis thaliana), sequence (Q9SLF3 456-794): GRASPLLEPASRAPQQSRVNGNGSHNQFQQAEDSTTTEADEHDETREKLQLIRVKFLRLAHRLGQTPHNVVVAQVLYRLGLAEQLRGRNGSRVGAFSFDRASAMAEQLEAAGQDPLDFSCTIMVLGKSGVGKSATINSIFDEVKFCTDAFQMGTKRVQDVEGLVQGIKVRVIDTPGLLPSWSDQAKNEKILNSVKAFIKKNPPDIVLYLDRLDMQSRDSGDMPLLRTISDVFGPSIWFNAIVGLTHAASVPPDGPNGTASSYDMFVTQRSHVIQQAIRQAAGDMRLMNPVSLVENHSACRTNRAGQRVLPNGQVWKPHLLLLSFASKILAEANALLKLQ

atToc159 G-domain bait (Arabidopsis thaliana), sequence (O81283 728-1092): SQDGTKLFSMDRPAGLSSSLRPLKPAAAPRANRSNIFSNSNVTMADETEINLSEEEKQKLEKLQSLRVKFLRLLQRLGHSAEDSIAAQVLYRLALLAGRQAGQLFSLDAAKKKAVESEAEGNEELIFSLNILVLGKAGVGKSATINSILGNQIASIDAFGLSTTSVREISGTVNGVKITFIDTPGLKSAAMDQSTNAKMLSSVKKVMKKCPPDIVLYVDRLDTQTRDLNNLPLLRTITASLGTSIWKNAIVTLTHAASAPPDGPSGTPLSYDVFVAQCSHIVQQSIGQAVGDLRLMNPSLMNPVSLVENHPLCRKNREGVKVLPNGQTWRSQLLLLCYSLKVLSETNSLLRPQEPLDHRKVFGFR

| % increase in strength of interaction (β-Gal) with Toc159G against Toc132G [1] [%] | Binder | also measured |
| --- | --- | --- |
| – | Light-Harvesting Chlorophyll-Protein Complex I Subunit A4 (natural protein) MATVTTHASASIFRPCTSKPRFLTGSSGRLNRDLSFTSIGSSAKTSSFKVEAKKGEWLPGLASPDYLTGSLAGDNGFDPLGLAEDPENLKWFVQAELVNGRWAMLGVAGMLLPEVFTKIGIINVPEWYDAGKEQYFASSSTLFVIEFILFHYVEIRRWQDIKNPGSVNQDPIFKQYSLPKGEVGYPGGIFNPLNFAPTQEAKEKELANGRLAMLAFLGFVVQHNVTGKGPFENLLQHLSDPWHNTIVQTFN | % decrease in strength of interaction (β-Gal) with Toc159G against Toc132G [1]: -38.5% |
| 40.5 | Protochlorophyllide oxidoreductase B (natural protein) MALQAASLVSSAFSVRKDAKLNASSSSFKDSSLFGASITDQIKSEHGSSSLRFKREQSLRNLAIRAQTAATSSPTVTKSVDGKKTLRKGNVVVTGASSGLGLATAKALAETGKWNVIMACRDFLKAERAAKSVGMPKDSYTVMHLDLASLDSVRQFVDNFRRTETPLDVLVCNAAVYFPTAKEPTYSAEGFELSVATNHLGHFLLARLLLDDLKKSDYPSKRLIIVGSITGNTNTLAGNVPPKANLGDLRGLAGGLNGLNSSAMIDGGDFDGAKAYKDSKVCNMLTMQEFHRRFHEETGVTFASLYPGCIASTGLFREHIPLFRALFPPFQKYITKGYVSETESGKRLAQVVSDPSLTKSGVYWSWNNASASFENQLSEEASDVEKARKVWEISEKLVGLA | – |
| 24 | Photosystem II subunit X (natural protein) MASTSAMSLVTPLNQTRSSPFLKPLPLKPSKALVATGGRAQRLQVKALKMDKALTGISAAALTASMVIPEIAEAAGSGISPSLKNFLLSIASGGLVLTVIIGVVVGVSNFDPVKRT | – |
| – | Ferredoxin-thioredoxin reductase subunit A (natural protein) MNLQAVSCSFGFLSSPLGVTPRTSFRRFVIRAKTEPSEKSVEIMRKFSEQYARRSGTYFCVDKGVTSVVIKGLAEHKDSYGAPLCPCRHYDDKAAEVGQGFWNCPCVPMRERKECHCMLFLTPDNDFAGKDQTITSDEIKETTANM | % increase in strength of interaction (β-Gal) with 132G against 159G [2]: 45.2% |
